Measured values from PMC5790014, “Type IX secretion system PorM and gliding machinery GldM form arches spanning the periplasmic space” (Nature Communications, 2018).

Tests used:
[1] = biological target: the molecule itself; assay: crystal structure; GldMp; sitting-drop vapor diffusion at 293K; 0.1 M Hepes pH 7-8, 26-46% (w/v) PEG 600; 2 Å
[2] = biological target: T1, PorMp315 (PorM periplasmic fragment, domains D3 and D4 in the crystal) (Porphyromonas gingivalis, UniProt B2RLE8); assay: crystal structure; PorMp315/nb130, 1/1 complex at 10 mg/mL; 0.2 M ammonium citrate tribasic pH 7.0, 20% (w/v) PEG3350; 2.1 Å; settings: both partners purified
T1 construct: PorM, Porphyromonas gingivalis, GI 188595218; cloned as residues 224-516, domain D2 was cleaved by a protease during crystallization, the structure spans residues 315-516; Construct cloned as 224-516 (pLIC03); the crystallised species is 315-516

[3] = biological target: the molecule itself; assay: crystal structure; PorMp224; 0.02 M sodium acetate pH 4.8-5.8, 0.2 M zinc acetate, 15-25% (w/v) PEG3350; 2.85 Å
[4] = biological target: the molecule itself; assay: crystal structure; PorMp315/nb130, 1/1 complex at 10 mg/mL; 0.2 M ammonium citrate tribasic pH 7.0, 20% (w/v) PEG3350; 2.1 Å
[5] = biological target: T2, PorMpNt (N-terminal domain D1 of the PorM periplasmic domain) (Porphyromonas gingivalis (sequence …)); assay: crystal structure; PorMNt/nb01, 1/1 complex at 10 mg/mL; 0.1 M Hepes pH 7.5, 0.2 M NaCl, 25% (w/v) PEG3350; 2.4 Å; settings: both partners purified
T2 construct: PorM, Porphyromonas gingivalis, GI 188595218, N-terminal domain D1; residues 30-212 by the results, residues 44-217 by the methods; the first helix (residues 30-69) is missing in the crystal, probably cleaved during crystallization; also called PorMNt

B1: GldM periplasmic domain (GldMp) (domain or fragment, Flavobacterium johnsoniae, UniProt Q5EGM3 36-513, looked up)
chain: FGLMNEKFEAANTSSVTTNESLLTSLDQKAAEAKGEFAKAAETAHKVQAASKEFYDYIGTLKTQAVKGFEVDKETGKMPYEAMDRGDNIDDWFTGDGYTKKGNEIIAKIEKYKSDIKAALGTDKKYAGIISEVEKKFDVSDVKNKEGIKEKYLAYHFKGFPAIASAAKLSAWQNDVKKTEADVYNSALGKAAVAAASYSNYQAIVVLDKNAYFQGEKVTGKVVLGRYDENTKPTSFQGPGQIVNGQAVISLTAGGVGEQDINGQFTFLEDGKNIPLKFSGKYVVVPRPNSATISADKMNVVYRGVVNPISVSFAGVDANKIVASAPGLSSAGKPGKYNMSPGQGTEATISVTGTLPNGDKVTDKKTFRIKGIPGPTGTIRGEMGVVKGPKSNLEIATIGAKLLDFDFEVGLDVVGFNMKIAGQPTVVVTGNKMNAQCKSVLARAGKGDQVTISEIKTKLVGAGSYLLPRTAPVIYEIQ
notes: GldM, Flavobacterium johnsoniae (ATCC17061), GI 58531935, periplasmic domain, residues 36-513; Cloned into pLIC03 (a pET28a+ derivative); A SeMet derivative was used for phasing
How did the “stoichiometry N” value [1] turn out when B1 was run?
The value was 2.

B2: nanobody nb130 (VHH)
VHH: QVQLVESGGGLVQAGGSLRLSCAASGRTFSSYVMGWFRQAPGKEREFVTAISWSGGSIHYADSVKGRFTISRDNAKNTVYLQMNSLKPEDTAVYTCVAGFAGYGSFTSRSARDSDKYDYWGQGTKVTVSS
notes: llama nanobody raised against PorMp; source: E. coli WK6, periplasmic fraction, purified (Ni-NTA, Superdex 75)
Does B2 bind [2]?
Result: binds

B3: PorMp224 (PorM periplasmic fragment, residues 224-516) (domain or fragment)
chain: RVNSITAQVIPQSQIVMSGDTYKANIVLSSVDTTQRPDVFVNGKLLSPENMGLFTATAGAPGTYPVKGYIEMMGNDGVKIRRDFESEYFVTEPMASVAPTMMNVLYAGIDNPINIAVPGVAQQNVSATINNGTLTRRGNLWIARPTKVGSEAIISVTAQSGGRTIQMAKTTLRVRALPDPLPYIEYKDVQGNTKRFKGGRLGKREILAAGGIKAALDDDLLEVNYTVVKFQLVFYDSMGNSIPEVSDGASFSERQKRQIQNLGKGKRFYVTEVIARGPDGIERKIPAIEVIVN
notes: PorM, Porphyromonas gingivalis, GI 188595218, tryptic fragment of the periplasmic domain, residues 224-516 (domains D2-D4); source: trypsin cleavage of PorMp (made in Rosetta E. coli cells), fragment purified
Does B3 bind [3]?
Result: binds

B4: PorMp315 (PorM periplasmic fragment, domains D3 and D4 in the crystal) (domain or fragment, Porphyromonas gingivalis, UniProt B2RLE8 315-516, looked up)
chain: EPMASVAPTMMNVLYAGIDNPINIAVPGVAQQNVSATINNGTLTRRGNLWIARPTKVGSEAIISVTAQSGGRTIQMAKTTLRVRALPDPLPYIEYKDVQGNTKRFKGGRLGKREILAAGGIKAALDDDLLEVNYTVVKFQLVFYDSMGNSIPEVSDGASFSERQKRQIQNLGKGKRFYVTEVIARGPDGIERKIPAIEVIVN
notes: PorM, Porphyromonas gingivalis, GI 188595218; cloned as residues 224-516, domain D2 was cleaved by a protease during crystallization, the structure spans residues 315-516; Construct cloned as 224-516 (pLIC03); the crystallised species is 315-516
Does B4 bind [4]?
Result: binds

B5: nanobody nb01 (VHH)
VHH: DVQLVESGGGLVQAGGSLRVSCAASGRTFSSYSMGWFRQAPGKEREFVAAISRSDNSTYYADSVKGRFTISRDSAKNTVYLQMNSLKPEDTAVYYCAATPYGSRYYLRELREYDYWGQGTQVTVSS
notes: as for B2
Does B5 bind [5]?
Result: binds
